What was measured:
[1] = biological target: E2 Ubch5c from bacteria, P61077
[2] = biological target: His6-UbcH13/Uev1a, Q13404
Chain of His6-UbcH13/Uev1a, Q13404 (chain, as listed by the source, chain 1 of 2): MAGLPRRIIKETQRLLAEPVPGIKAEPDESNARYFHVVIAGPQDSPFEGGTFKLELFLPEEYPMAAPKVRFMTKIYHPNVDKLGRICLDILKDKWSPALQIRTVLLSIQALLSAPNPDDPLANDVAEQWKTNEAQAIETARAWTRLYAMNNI
Chain of His6-UbcH13/Uev1a, Q13404 (Q13404 other isoform, or with tags, fused parts or gaps, chain 2 of 2): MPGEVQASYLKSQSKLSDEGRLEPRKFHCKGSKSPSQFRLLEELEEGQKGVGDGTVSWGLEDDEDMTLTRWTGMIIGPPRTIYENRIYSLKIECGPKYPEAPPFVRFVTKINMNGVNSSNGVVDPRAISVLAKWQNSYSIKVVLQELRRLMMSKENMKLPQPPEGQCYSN

Chain of E2 Ubch5c from bacteria, P61077 (P61077 whole entry): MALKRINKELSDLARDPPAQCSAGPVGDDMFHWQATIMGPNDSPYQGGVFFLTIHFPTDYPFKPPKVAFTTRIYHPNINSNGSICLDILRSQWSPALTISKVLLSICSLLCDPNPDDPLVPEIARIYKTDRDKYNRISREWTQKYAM

B1: POSH #178 (1-361) gst fusion (protein)
chain: MDESALLDLLECPVCLERLDASAKVLPCQHTFCKRCLLGIVGSRNELRCPECRTLVGSGVEELPSNILLVRLLDGIKQRPWKPGPGGGSGTNCTNALRSQSSTVANCSSKDLQSSQGGQQPRVQSWSPPVRGIPQLPCAKALYNYEGKEPGDLKFSKGDIIILRRQVDENWYHGEVNGIHGFFPTNFVQIIKPLPQPPPQCKALYDFEVKDKEADKDCLPFAKDDVLTVIRRVDENWAEGMLADKIGIFPISYVEFNSAAKQLIEWDKPPVPGVDAGECSSAAAQSSTAPKHSDTKKNTKKRHSFTSLTMANKSSQASQNRHSMEISPPVLISSSNPTAAARISELSGLSCSAPSQVHIST
[1]
  in-vitro self-ubiquitination of hPOSH (anti-ubiquitin immunoblot): Ub-hPOSHconjugates, detected as high molecular weight adducts only in reactions containing E1, E2 and ubiquitin

B2: POSH # 176 (1-269) gst fusion (protein)
chain: MDESALLDLLECPVCLERLDASAKVLPCQHTFCKRCLLGIVGSRNELRCPECRTLVGSGVEELPSNILLVRLLDGIKQRPWKPGPGGGSGTNCTNALRSQSSTVANCSSKDLQSSQGGQQPRVQSWSPPVRGIPQLPCAKALYNYEGKEPGDLKFSKGDIIILRRQVDENWYHGEVNGIHGFFPTNFVQIIKPLPQPPPQCKALYDFEVKDKEADKDCLPFAKDDVLTVIRRVDENWAEGMLADKIGIFPISYVEFNSAAKQLIEWDKP
[1]
  in-vitro self-ubiquitination of hPOSH (anti-ubiquitin immunoblot): Ub-hPOSHconjugates, detected as high molecular weight adducts only in reactions containing E1, E2 and ubiquitin

B3: GST-hPOSH1-139 (protein)
chain: MDESALLDLLECPVCLERLDASAKVLPCQHTFCKRCLLGIVGSRNELRCPECRTLVGSGVEELPSNILLVRLLDGIKQRPWKPGPGGGSGTNCTNALRSQSSTVANCSSKDLQSSQGGQQPRVQSWSPPVRGIPQLPCA
[2]
  self-ubiquitination of hPOSH (high molecular weight ubiquitin-biotin conjugates, streptavidin blot): conjugation of ubiquitin to hPOSH was supported by four E2s, UbCH13/Uevla, UBCH5a, UBCH5c and UBCH6
GST-UbcH5a, P51668
Chain of GST-UbcH5a, P51668 (P51668 whole entry): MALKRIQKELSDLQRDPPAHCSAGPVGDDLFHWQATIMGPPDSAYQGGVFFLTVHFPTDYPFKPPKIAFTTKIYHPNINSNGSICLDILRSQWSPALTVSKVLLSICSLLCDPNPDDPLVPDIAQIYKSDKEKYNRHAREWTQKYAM
  self-ubiquitination of hPOSH (high molecular weight ubiquitin-biotin conjugates, streptavidin blot): conjugation of ubiquitin to hPOSH was supported by four E2s, UbCH13/Uevla, UBCH5a, UBCH5c and UBCH6
His-UbcH6, P51965
Chain of His-UbcH6, P51965 (P51965 whole entry): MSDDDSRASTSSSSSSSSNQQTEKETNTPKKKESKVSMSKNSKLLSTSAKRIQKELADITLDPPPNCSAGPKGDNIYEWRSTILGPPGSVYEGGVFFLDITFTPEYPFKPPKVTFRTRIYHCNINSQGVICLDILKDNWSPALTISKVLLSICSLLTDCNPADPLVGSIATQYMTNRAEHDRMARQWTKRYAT
  self-ubiquitination of hPOSH (high molecular weight ubiquitin-biotin conjugates, streptavidin blot): conjugation of ubiquitin to hPOSH was supported by four E2s, UbCH13/Uevla, UBCH5a, UBCH5c and UBCH6
GST-UbcH5c, P61077
Chain of GST-UbcH5c, P61077 (P61077 whole entry): as the sequence (P61077 whole entry) above
  self-ubiquitination of hPOSH (high molecular weight ubiquitin-biotin conjugates, streptavidin blot): conjugation of ubiquitin to hPOSH was supported by four E2s, UbCH13/Uevla, UBCH5a, UBCH5c and UBCH6

From patent publication US20070060537
